± gives the standard deviation.

A short description of this data set: protein stability index of a GFP-peptide fusion (GPS, HEK-293T) (PSI 1-6); higher = more stable. The conditions noted are these: c terminus: a fixed tail appended.
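Further: 24-mer peptide tiles fused after GFP, lentivirally expressed, FACS-sorted into six equal bins by GFP/DsRed ratio, decoded by Illumina sequencing, PSI is the read-weighted mean bin number.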

For the sequence KLPSRRQPGLLHLQSCGDLHTFTP [FAM189A2], the protein stability index runs as follows: (treatment: DMSO) 4.92 ± 0.19; (treatment: MLN4924 1 uM, 8 h) 4.94 ± 0.15.
In the same order, the values of KLRAMKELSEAAEAQHGPHSAVAR [STX11] are 4.51 ± 0.13 and 4.6 ± 0.17.
As to KLRLFDTPHTPKSLLSKARGIDSS [WEE1], the protein stability index was 3.19 ± 0.092 (treatment: DMSO) and 3.26 ± 0.32 (treatment: MLN4924 1 uM, 8 h).
On to KMDMSVLEISGIIMSRVNAYQQGV [PHTF1], for which the protein stability index by setting is: (treatment: DMSO) 2.5 ± 0.54; (treatment: MLN4924 1 uM, 8 h) 2.48 ± 0.49.
For KPDDEVKETAHDLDVKSPPEPRSE [RIPK4], the protein stability index is, setting by setting: (treatment: DMSO) 5.63 ± 0.34; (treatment: MLN4924 1 uM, 8 h) 5.61 ± 0.37.
On to KRLKERSLDTLLEAVESRGGVPGG [SMAD6], for which the protein stability index is 4.32 ± 0.16 (treatment: DMSO) and 4.72 ± 0.12 (treatment: MLN4924 1 uM, 8 h).
In the case of KSGPGDGFFSSAFQARLSGNNLHN [POMT2], the protein stability index was found to be 3.04 ± 0.096 (treatment: DMSO) and 2.95 ± 0.41 (treatment: MLN4924 1 uM, 8 h).
As for KSPTGLKLKNDTENHQPVSLSDLE [ZNF75A], the protein stability index was found to be 5.3 ± 0.23 (treatment: DMSO) and 5.188 ± 0.043 (treatment: MLN4924 1 uM, 8 h).
For KSQLGFLNVTNYCHLAHELRLSCM [DCAF4] the same measures were 3.04 ± 0.41 and 2.57 ± 0.36.
Take KSVAWEGGACPAFLPSLRPPPLTS [NCF4]: the protein stability index by setting is: (treatment: DMSO) 3.12 ± 0.36; (treatment: MLN4924 1 uM, 8 h) 3.11 ± 0.078.
KTAATRYRQKKRAEQEALTGECKE [ATF4] displayed a protein stability index (treatment: DMSO) of 4.95 ± 0.16 and a protein stability index (treatment: MLN4924 1 uM, 8 h) of 5.1 ± 0.094.
Consider KTSELLVRKWRVKSALGAMGQWQL [DPCD], for which the protein stability index came to 2.56 ± 0.76 (treatment: DMSO) and 2.47 ± 0.41 (treatment: MLN4924 1 uM, 8 h).
For KVEVDMEKIAAEIAQAEEQARKRQ [SMARCE1], the protein stability index amounted to 4.99 ± 0.27 (treatment: DMSO) and 4.78 ± 0.37 (treatment: MLN4924 1 uM, 8 h).
Regarding KVPFSQEIKDLILPKISDPNFVKD [PI4K2A], the protein stability index runs as follows: (treatment: DMSO) 3.56 ± 0.24; (treatment: MLN4924 1 uM, 8 h) 3.56 ± 0.28.
For the sequence LAAAVVQEHSNSVGGQDTGATWRT [C18orf25], the protein stability index by setting is: (treatment: DMSO) 4.22 ± 0.23; (treatment: MLN4924 1 uM, 8 h) 4.18 ± 0.21.
For LACWTYGISVPSGLFVPSLLCGAA [CLCN6] the same measures were 3.13 ± 0.1 and 3.43 ± 0.4.
Consider LAEYQDLTFLTKQEILLAHRRFCE [CIB1], for which the protein stability index reads like this: (treatment: DMSO) 2.3 ± 0.1; (treatment: MLN4924 1 uM, 8 h) 2.54 ± 0.38.
As to LAMNYLDRFLAGVPTPKSHLQLLG [CCND2], the protein stability index reads like this: (treatment: DMSO) 2.94 ± 0.61; (treatment: MLN4924 1 uM, 8 h) 2.65 ± 0.76.
On to LARKGSLKNGSMGSPVNQQPKKNN [FAM219A], for which the protein stability index is, setting by setting: (treatment: DMSO) 4.85 ± 0.25; (treatment: MLN4924 1 uM, 8 h) 4.77 ± 0.065.
For LAVSRPRSSPDDLKALTRNVNRLN [SCARA5] the same measures were 3.82 ± 0.22 and 3.84 ± 0.22.
As to LCKSVLEIERAIKQTQCPADPLQL [FEM1C], the protein stability index reads like this: (treatment: DMSO) 3.17 ± 0.13; (treatment: MLN4924 1 uM, 8 h) 3.11 ± 0.26.
In the same order, the values of LCRRLNTLNKCAVMKLEISPHRKR [DLC1] are 2.12 ± 0.069 and 2.85 ± 0.22.
Turning to LDDRKNEEDGGADEHEHPLTSELD [MIA2], the protein stability index is, setting by setting: (treatment: DMSO) 5.76 ± 0.12; (treatment: MLN4924 1 uM, 8 h) 5.26 ± 0.38.
In turn, LDFLQEVTRQPRNLQDLCRIKIRQ [ASB7] showed a protein stability index (treatment: DMSO) of 3.35 ± 0.16 and a protein stability index (treatment: MLN4924 1 uM, 8 h) of 3.57 ± 0.3.
In the case of LDSEKPKKLRFHPKQLYFSARQGE [EHMT1], the protein stability index was 3.2 ± 0.038 (treatment: DMSO) and 3.4 ± 0.21 (treatment: MLN4924 1 uM, 8 h).
For LEETKGRYCMQLSQIQGLIGSVEE [KRT16], the protein stability index came to 3.91 ± 0.17 (treatment: DMSO) and 3.91 ± 0.2 (treatment: MLN4924 1 uM, 8 h).
In the same order, the values of LENTYRDFWLMVWEQKVLVIVMTT [PTPN9] are 2.36 ± 0.7 and 2.59 ± 0.6.
In the same order, the values of LENVFSSLTDDKYDVAMNRAKDLV [GOLPH3L] are 3.89 ± 0.32 and 3.92 ± 0.19.
For LEPLKAIIQYRLPMKKNNNLYSWD [ACSBG2] the same measures were 2.57 ± 0.47 and 2.17 ± 0.2.
LESELLRGTQYSSLDSLDGLSLTD [PSD2]: the protein stability index amounted to 4.53 ± 0.22 (treatment: DMSO) and 4.73 ± 0.21 (treatment: MLN4924 1 uM, 8 h).
For the sequence LESSYNDEMLSYLPGGTTGLQLPS [TFE3], the protein stability index runs as follows: (treatment: DMSO) 3.94 ± 0.18; (treatment: MLN4924 1 uM, 8 h) 3.88 ± 0.27.
For LFAEEQAEGPNRLLYKDGFSTILH [LPCAT4] the same measures were 3.17 ± 0.24 and 3.1 ± 0.35.
Consider LFEEPAPQALATRALPCPAHVVFR [FCHSD1], for which the protein stability index was 3.13 ± 0.16 (treatment: DMSO) and 3.21 ± 0.19 (treatment: MLN4924 1 uM, 8 h).
In the same order, the values of LFLGIHVFLVSCALPDSVLRRFVV [AUP1] are 3.03 ± 0.52 and 2.97 ± 0.63.
In the same order, the values of LFQVVINPNFEVAESDYSNNIMKC [LOXL2] are 2.09 ± 0.28 and 2.5 ± 0.27.
In the same order, the values of LGANEVLLVVGGFGSQQSPIDVVE [KLHL12] are 2.27 ± 0.28 and 2.25 ± 0.85.
On to LGCFSDTEPWGGTAIRPLKILPWS [PNLIPRP1], for which the protein stability index turned out to be 2.1 ± 0.28 (treatment: DMSO) and 2.43 ± 0.57 (treatment: MLN4924 1 uM, 8 h).
Regarding LGESKEHMESRMVTETEETQEKKA [SDE2], the protein stability index worked out at 5.51 ± 0.3 (treatment: DMSO) and 5.75 ± 0.12 (treatment: MLN4924 1 uM, 8 h).
Turning to LGETKAYVFFEKDFGDMHSYVRSR [TRIB1], the protein stability index is 2.62 ± 0.42 (treatment: DMSO) and 2.37 ± 0.11 (treatment: MLN4924 1 uM, 8 h).
Turning to LGYPYVNSVSSHASSPYISSVQSY [DLX1], the protein stability index by setting is: (treatment: DMSO) 2.29 ± 0.18; (treatment: MLN4924 1 uM, 8 h) 2.35 ± 0.27.
For LHDNHEQMPTEIEFPESRKPISTK [ZNF649] the same measures were 5.1 ± 0.22 and 5.25 ± 0.31.
In the same order, the values of LHVNPKKQTIGNSCKACGYRGMLD [EIF5] are 2.35 ± 0.29 and 2.44 ± 0.64.
In the same order, the values of LIQDGNPMENLEKQLICPICLEMF [TRIM63] are 2.87 ± 0.58 and 2.97 ± 0.54.
For LKEFDLDALLGIDDLETMPDDLLT [ATF4], the protein stability index amounted to 3.81 ± 0.2 (treatment: DMSO) and 4.05 ± 0.38 (treatment: MLN4924 1 uM, 8 h).
In the same order, the values of LKERYQKIGDTKRNTPIEALCENF [CSNK1G1] are 3.43 ± 0.65 and 3.44 ± 0.49.
For LKKSNSAPSKKAAKDPGKGELPNH [FBF1] the same measures were 5.14 ± 0.1 and 5.08 ± 0.11.
In the same order, the values of LLASSDAALSASMASLLEDLSHIE [SERTAD1] are 3.06 ± 0.37 and 3.27 ± 0.33.
With LLEPEEGGRAYQALHCPTGTEYTC [TRIB3], the protein stability index came out at 3.8 ± 0.31 (treatment: DMSO) and 4.1 ± 0.23 (treatment: MLN4924 1 uM, 8 h).
For LLIANKRQSYDISIVAQVDQTGSK [CARM1] the same measures were 2.47 ± 0.25 and 2.52 ± 0.26.
For the sequence LLLERAAAGSPRSPGPLPGARGLH [ISL2], the protein stability index runs as follows: (treatment: DMSO) 2.8 ± 0.15; (treatment: MLN4924 1 uM, 8 h) 2.97 ± 0.049.
In turn, LLQLSDACRFQEDQEMARDLVERA [TCF25] showed a protein stability index (treatment: DMSO) of 3.64 ± 0.34 and a protein stability index (treatment: MLN4924 1 uM, 8 h) of 3.77 ± 0.52.
LLQSFHGHGADVLCLDLAPSETGN [GNB5]: the protein stability index came out at 3.23 ± 0.3 (treatment: DMSO) and 3.39 ± 0.14 (treatment: MLN4924 1 uM, 8 h).
On to LLRRDLGVGTSMEGASPLSERCQR [FANCE], for which the protein stability index is, setting by setting: (treatment: DMSO) 4.01 ± 0.15; (treatment: MLN4924 1 uM, 8 h) 4.17 ± 0.083.

Source of the values: the supplement of paper PMC10567573.
